# Experimental data published in article PMC4341462, “Human RNASET2 derivatives as potential anti-angiogenic agents: actin binding sequence identification and characterization” (Oncoscience, 2014).
# Assays:
# [1] = molecular target: T1, Actin from rabbit muscle (Sigma A2522) (rabbit, UniProt P68135 1-377); test: ELISA; solid-phase actin binding assay: 500 ng actin coated per well (MaxiSorp, carbonate-bicarbonate pH 9.5), blocked with 3% BSA; trT2-50, trT2-50m or peptides added in 1:2 dilutions from 500 ng/well in 100 μl TBS, 1 h 37°C; detected with rabbit anti-trT2-50 and goat anti-rabbit IgG-HRP, OD 655 nm; affinity by double reciprocal plot; details: both partners purified
# [2] = molecular target: T1, Actin from rabbit muscle (Sigma A2522); test: SPR; BIAcore 3000; actin amine-coupled to a CM5 chip; hRNASET2, trT2-50, trT2-50m or peptides injected at 5 concentrations, 10 μl/min, 25°C, HBS (10 mM Hepes, 150 mM NaCl, 3 mM EDTA, 0.005% Polysorbate 20); global fit with BIAevaluation 3.2; details: both partners purified
binder,measurement,setting,value
trT2-50m (truncated hRNASET2 identical to trT2-50 but missing E120-V141) (domain or fragment) EGCNRSWPFNLEEIKDLLPEMRAYWPDVIHSFPNRSRFWKHEWEKHGTCAAQVDALNSQKKYFGRSLELYRADFKDALARVYGVIPKIQCLPPSQDEEVQTIGQIELCLTKQDQQLQNCTEPGEQPSPKQEVWLANGAAESRGLRVCEDGPVFYPPPKKTKH,Kd,[1],34.5 nM
same,Kd,[2],500 nM
same,koff,[2],0.00969 s⁻¹
same,kon,[2],19400 M⁻¹ s⁻¹
